# Measurements reported in the supplement of paper PMC10724198.
# ± gives the standard deviation of the averaged measurements.
# Tested on: Saccharomyces cerevisiae
# Experiment: protein stability index of tFT-peptide fusion (C-terminal peptide) (PSI (0-1 scale)); higher = more stable (slower turnover)
# Settings: genetic background: wild type; temperature: 30 C
# Method: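 Multiplexed protein stability (MPS) profiling in S. cerevisiae. Random 12-aa peptides (tFT-X12 library) are fused to the C-terminus of a sfGFP-mCherry tandem fluorescent timer, after mCherry and a GGGS linker. Cells are FACS-sorted into 8 mCherry/sfGFP bins and deep-sequenced. The protein stability index (PSI) is the read-weighted bin average, scaled from 0 (unstable) to 1 (stable). Only peptides with >10 reads are reported; cells were grown at 30 °C in SC-His with glucose.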
# 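Also: PSI is a weighted mean of sequencing reads over stability bins, variants kept only with over 10 reads, mCherry proximal and sfGFP distal, peptide attached via GGGS linker.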
row,Sequence,protein stability index
1,FFPRVLRLRYPS,0.754 ± 0.085
2,FFPSFVLSFPCL,0.641 ± 0.069
3,FFSPFSPALYTS,0.756 ± 0.014
4,FFVLGRGVCLGA,0.649 ± 0.066
5,FFYGLHSHCAIP,0.717 ± 0.081
6,FGAGLTACPVSV,0.517 ± 0.036
7,FGAHVGWHEASP,0.705 ± 0.018
8,FGDPRRTDPLRL,0.631 ± 0.04
9,FGFWCGWFAALP,0.689 ± 0.0094
10,FGGRGRVASRLV,0.763 ± 0.086
11,FGIDVRPRPSQS,0.698 ± 0.12
12,FGRWVVVYRGLD,0.625 ± 0.037
13,FGSPFPASRFTT,0.752 ± 0.082
14,FGVDGVGVVVGY,0.669 ± 0.0086
15,FGVGGRWVVPGA,0.733 ± 0.016
16,FGVRTLTFISRT,0.637 ± 0.0081
17,FGWFDIKDSTNS,0.7177 ± 0.0048
18,FHARVEKQFMVM,0.489 ± 0.031
19,FHMPRSSPFLTG,0.74 ± 0.054
20,FIGWFSLMSCSV,0.604 ± 0.026
21,FISPSPLPPYSP,0.665 ± 0.059
22,FITLHGLLSRPC,0.626 ± 0.077
23,FITRPYKNIKNR,0.702 ± 0.031
24,FKRPQFFSAFFP,0.612 ± 0.011
25,FKVARGVHCGEG,0.6662 ± 0.0037
26,FLFCSYHSPLSF,0.7 ± 0.036

row,Sequence,protein stability index
1,FLFLSFLSSSPS,0.745 ± 0.0088
2,FLFLYIPFSPPR,0.62 ± 0.02
3,FLFSDLVCSSVF,0.704 ± 0.027
4,FLGAELRRLGSL,0.703 ± 0.071
5,FLHLGGEWGVEG,0.683 ± 0.041
6,FLHLTSSTPLSR,0.794 ± 0.17
7,FLHPPPSALVLP,0.726 ± 0.03
8,FLHSERTLCFIS,0.537 ± 0.052
9,FLLFLSSAPPAT,0.655 ± 0.0084
10,FLLHHVSRSPSA,0.692 ± 0.014
11,FLLPRFDSAFPL,0.684 ± 0.031
12,FLLVLPLSGLIV,0.528 ± 0.016
13,FLPHPSPDPLPP,0.588 ± 0.12
14,FLPPYSLPTPPF,0.699 ± 0.03
15,FLRLGLLQTFSP,0.677 ± 0.04
16,FLRPALACDVYN,0.737 ± 0.05
17,FLSLSLFPFSSL,0.698 ± 0.024
18,FLSRLGLVGWWG,0.643 ± 0.036
19,FLSTGIGKGVFL,0.694 ± 0.035
20,FLTAGRLYDGRV,0.6489 ± 0.0032
21,FLVEPSGRSATW,0.741 ± 0.16
22,FLWAPRWFCVGH,0.651 ± 0.041
23,FMFELSPVDEWA,0.791 ± 0.043
24,FMVIRVGGWGVL,0.646 ± 0.094
25,FPAPFLRVSPLW,0.644 ± 0.048
26,FPASLDAVTRPP,0.722 ± 0.011

row,Sequence,protein stability index
1,FPASPQAPPPLP,0.65377 ± 0.00019
2,FPATLPPSYSLI,0.643 ± 0.017
3,FPCRSPKLYPPL,0.655 ± 0.011
4,FPDTRSLPLPPG,0.687 ± 0.011
5,FPFSDFVFLFCF,0.57 ± 0.011
6,FPLPLCHSPAPP,0.606 ± 0.027
7,FPLPPLPPVPPP,0.632 ± 0.059
8,FPPPLPLSPPPP,0.746 ± 0.085
9,FPRLYHPNIKLP,0.716 ± 0.13
10,FPVTAPPRPFLF,0.639 ± 0.014
11,FPWFYPNHLEVP,0.698 ± 0.063
12,FQAPGGEIMSPS,0.647 ± 0.012
13,FQPPARATFLPV,0.668 ± 0.031
14,FRCGLDFRWYVI,0.62 ± 0.012
15,FRCSLLGGYTLE,0.737 ± 0.092
16,FRFSSTGRSFVS,0.6917 ± 0.0029
17,FRGPRSFRGVVW,0.757 ± 0.08
18,FRICSLTLSLSI,0.5517 ± 0.0048
19,FRISWLRVKGRG,0.676 ± 0.035
20,FRKTDYMVHNGI,0.664 ± 0.015
21,FRLNSYQNGSRV,0.682 ± 0.043
22,FRLQQGCSRHVG,0.671 ± 0.015
23,FRPCLRCLVSPF,0.6358 ± 0.0063
24,FRPLWLPSGSAC,0.611 ± 0.019
25,FRRCLCSLSLTS,0.631 ± 0.012
26,FRRLCRPVWSAR,0.6749 ± 0.0038

row,Sequence,protein stability index
1,FRYLAVSPFGGL,0.749 ± 0.057
2,FSAPLPPARSPS,0.798 ± 0.11
3,FSAPPPPSPPLS,0.721 ± 0.053
4,FSASSSLSPFPL,0.707 ± 0.052
5,FSFCQLSLASFP,0.571 ± 0.01
6,FSFPAPRGLLWV,0.547 ± 0.027
7,FSGSSCSSPFCF,0.632 ± 0.033
8,FSKTYTIMLITI,0.538 ± 0.0077
9,FSLLCGPGLRGF,0.72 ± 0.02
10,FSPGYPMAFSLR,0.74 ± 0.0075
11,FSPLLQSPLLAP,0.692 ± 0.0089
12,FSQLVQPSSFTS,0.7176 ± 0.004
13,FSRGRAVRVRRT,0.728 ± 0.21
14,FSSLFLSLLCPP,0.727 ± 0.073
15,FSSYDLISFVLV,0.538 ± 0.0099
16,FTISHWFSGDGE,0.705 ± 0.015
17,FTPLFSPVLLLP,0.72 ± 0.12
18,FTSPNGVRVCFH,0.843 ± 0.02
19,FVAGVGPLWGRR,0.661 ± 0.031
20,FVALCHCVRISR,0.697 ± 0.013
21,FVGCVNIFLSWG,0.51 ± 0.019
22,FVGSSFELRLPG,0.692 ± 0.057
23,FVGWVAMGGSVV,0.731 ± 0.024
24,FVLPSPRPPSMT,0.704 ± 0.0078
25,FVVGTFGHRRGR,0.694 ± 0.019
26,FWEGETVPTSEP,0.788 ± 0.045

row,Sequence,protein stability index
1,FWEIRSGSNHRH,0.713 ± 0.028
2,FWGVAPSDRVSK,0.697 ± 0.0078
3,FWVGGGVFGVRV,0.747 ± 0.015
4,FYAGELSCRHQT,0.694 ± 0.025
5,FYGLPSVVCGWF,0.671 ± 0.025
6,GAFKSRAGGGSG,0.621 ± 0.093
7,GAGGARRLAVGQ,0.655 ± 0.014
8,GAGGVWVRAWGP,0.768 ± 0.095
9,GAGLLRLWEVGG,0.733 ± 0.049
10,GAIRLSLMLLPQ,0.686 ± 0.042
11,GALVGFPAFFLL,0.654 ± 0.011
12,GALVLWTGCTYS,0.726 ± 0.0033
13,GAPTRSYGERKR,0.647 ± 0.0097
14,GARRLGLMVFDG,0.669 ± 0.066
15,GARRSAVPWSPK,0.723 ± 0.018
16,GASGGRIGEGEE,0.679 ± 0.011
17,GASSLGVNGGSV,0.6954 ± 0.0021
18,GAVAAVPRGGIL,0.715 ± 0.018
19,GAVHLNSLPVTK,0.6983 ± 0.0044
20,GAVSRRALPRRP,0.709 ± 0.016
21,GAVSVVFGWTDV,0.672 ± 0.021
22,GAVWAWRRLKGG,0.619 ± 0.035
23,GCASAAMFPEEL,0.691 ± 0.053
24,GCCGGRLWEGGG,0.707 ± 0.013
25,GCCWGCRIGEAV,0.6557 ± 0.0052
26,GCEGGGRVGSWT,0.742 ± 0.028

row,Sequence,protein stability index
1,GCEGGWLGEGIG,0.593 ± 0.014
2,GCFLSERLFTPL,0.7304 ± 0.00085
3,GCGAMGWAVPAA,0.655 ± 0.041
4,GCGEGVGASVGR,0.641 ± 0.011
5,GCGGLCQGGGGW,0.704 ± 0.084
6,GCGGVEAVGGVC,0.586 ± 0.025
7,GCLLVVAGGGRG,0.698 ± 0.069
8,GCLPGGKRESRG,0.647 ± 0.11
9,GCLRLCYQHWSP,0.6764 ± 0.005
10,GCRDQKLGVGVD,0.759 ± 0.064
11,GCRGEGGWVGRG,0.6955 ± 0.0029
12,GCRGWRSVGRGR,0.644 ± 0.025
13,GCRLVEGAVRLE,0.686 ± 0.048
14,GCRSQRSDSLMM,0.644 ± 0.028
15,GCSLWAVRTWGL,0.699 ± 0.01
16,GCSPTLMVSFIA,0.572 ± 0.037
17,GCVGGGWRHVGV,0.725 ± 0.059
18,GCVGGWCGGSGA,0.698 ± 0.083
19,GCWAGLGAPGVS,0.71 ± 0.027
20,GCWGAGESTLGG,0.724 ± 0.0084
21,GCWGEWGWVGRG,0.696 ± 0.035
22,GCWVNFLLTHFF,0.527 ± 0.024
23,GDASLSSLHIRL,0.642 ± 0.02
24,GDCIDCFKLVGI,0.711 ± 0.035
25,GDEDVSWLVFMG,0.762 ± 0.024
